From a protein production outcome set (Wang et al. 2014)

Assay: label from the status in PepcDB records

| Sequence | protein production |
| --- | --- |
| MADRLIVRGAREHNLKNVSLDLPRDSLIVFTGLSGSGKSSLAFDTIFAEGQRRYVESLSSYARQFLGQMDKPDVDFIEGLSPAVSIDQKSTSRNPRSTVGTITEVYDYLRLLFARIGKPHCPECGRPISRQSPQAIVDKVLELPEGSRFQVLSPLVRERKGEFVDLFADLQTKGYSRARVDGETVQLSNPPTLKKQEKHTIEVVVDRLTVKDSAKRRLTDSVETALGLSGGMVVLDFVDLPEDDPERERMYSEHLYCPYDDLSFEELEPRSFSFNSPFGACPDCSGIGTRMEVDAELIVPDEDKSLDEGAIHPWSHGHTKDYFGRLIGALADALGFRTDIPFAGLPLRARKALLYGHKTQVEVRYRNRYGRERRYTTAFEGAIPFVKRRHSEAESDASRERFEGYMREVPCPTCQGTRLKPLVLAVTVMGKSIAEVSAMSISDCADFLGELTLNARDKKIAERVLKEVNERLRFLVDVGLDYLSLNRAAGTLSGGEAQRIRLATQIGSGLVGVLYVLDEPSIGLHQRDNHRLIETLVRLRDMGNTLIVVEHDEDTIKVADWIVDIGPGAGEHGGKVVHSGSVKELLDNAESQTGLYLSGRKAIPLPDIRRPQDPSRRLTVHGARENNLQDIDVSFPLGVFTAVTGVSGSGKSTLVNDILYTHLARELNGARNVPGRHTRVDGDDLVDKVVHVDQSPIGRTPRSNPATYTGVFDHIRKLFAETTEAKVRGYLPGRFSFNVKGGRCENCAGDGTIKIEMNFLPDVYVPCEVCHGARYNRETLEVHYKGKSIADVLNMPIEEATDFFEAVPAISRHMKTLKDVGLGYVRLGQSATTLSGGEAQRVKLASELQRRSTGRTVYVLDEPTTGLHFEDISKLLTVLGGLVDKGNTVIVIEHNLDVIKTADWVVDMGPEGGAGGGLVVAEGTPEQVAGVPASHTGKFLRDVLGADRVSDAAPVTRPRKAAKTVAAKAAAKKTATKTVTGTAAKKATATRTAKTAVKKAAKPAAKKTTRTSKA | failed |
| MKKPVHDMRQHIIDVARSLMTNKGYTAVGLAEVLITAGVPKGSFYYYFKSKEEFGQALLEEYFSEYLGRVDALMARPGTGAERLLAYFMYWSETQGTDLPEGKCLVVKLGAEVCDLSEDMRCVLEVGTAKIIQRISACVEMGVSDGSIHPEGDHQGFAESLYQLWLGASLLVKVNKSTESFDKALNMTKRLLK | failed |
| MSSSQQIAKNARKAGNILKTISNEGRSDILYKIHDALKANAHAIEEANKIDLAVAKETGLADSLLKRLDLFKGDKFEVMLQGIKDVAELEDPVGKVKMARELDDGLTLYQVTAPVGVLLVIFESRPEVIANITALSIKSGNAAILKGGKESVNTFREMAKIVNDTIAQFQSETGVPVGSVQLIETRQDVSDLLDQDEYIDLVVPRGSNALVRKIKDTTKIPVLGHADGICSIYLDEDADLIKAKRISLDAKTNYPAGCNAMETLLINPKFSKWWEVLENLTLEGGVTIHATKDLKTAYFDKLNELGKLTEAIQCKTVDADEEQDFDKEFLSLDLAAKFVTSTESAIQHINTHSSRHTDAIVTENKANAEKFMKGVDSSGVYWNASTRFADGFRYGFGAEVGISTSKIHARGPVGLDGLVSYQYQIRGDGQVASDYLGAGGNKAFVHKDLDIKTVTLZ | not failed |
| MRDYATTAAGFDLQRTAAATLSGTLQALNACVECCDRHALPGRIALFWEGKDGSRASYTFSELKALSGRFANFLQAQGVRPGDCVAGLLPRTPELLVTILGAWRLGAVYQPLFTAFGPKAIEHRVATAGSKVLVTDAANRDKLDELADPPLAVTVGGPKGQGIRRGDFSFWAELERYPAEFEPVPRSGEDPFLMMFTSGTTGLAKPVPVPLKAILAFVGYLREAVDLRPEDAFWNLADPGWAYGLYYAVAGPLAMGHPTTFYEGPFSVESTCRIIRDYGITNLAGSPTAYRLLMAAGAAAETALKGRLRAVSSAGEPLTPEVIRWFADRLGTTIHDHYGQTELGMVLCNHHALAHPVRVGAAGFACPGHRVVVLDDDLNELPPGQPGILALDRRRSPLMWFPGYQGLETAAFVGDYYLSGDTVELNEDGSISFVGRADDVITTSGYRVGPFDVESALIEHPAVMEAAVIGKPDPERTELVKAFVVLCAGHRPTPELADALQRYVRQRLSAHAYPREIEFLEELPKTPSGKIQRFLLRNQEIARQREAAPRAAAAN | failed |
| MKLKDDPDIIRWINSRPRQALFASVAMVISTMSIGLFKGFDMWTADFFIFSCLLIGFGLLVGWLQKIYYKKVIFEENSDR | failed |
| MCHQLSKKTKKALDQELKRKTTLKNNLFSRYLLFRYSLALFFFVNLYWTFPLIYKPSVYVILPVSLLILIVLACAEQFKLYSLQEVYLRNTERVFKTQIVVQILLLIINIFPQQLSVAIPFFSNNMAAHVFLAVFQFLGLFICWYNLKRIKQIKNNEDKFYNRFYNHIEKYI | failed |
| MASEFDLIQRYFRRAHPSAVLGVGDDAALIQPSPGMELAVSADMLVANTHFYPNIDPWLIGWKSLAVNISDMAAMGAQPRWATLTIALPEADEDWISKFAAGFFACAAQFDIALIGGDTTRGPLTISVQIMGETPPGASLLRSTARADDDIWVSGPLGDAALALAAIQGRYPLSDTELAACGKALHQPQPRVVLGQALRGLAHSALDISDGLLADLGHILEHSQVGAEVWLKAIPKSEVVSAHSQEVAIQKMILSGGDDYELCFTASTQHRQQIADIGRQLSLDMAVIGRITDTQQLVIHGLDDAPLTLKEHGFDHFA | not failed |
| MRRQPKTRQESARMSIEAPETVVVSTWKVACDGGEGALGHPRVWLSIPHETGFVECGYCDRRYIHESFAAAKLEHHHHHH | not failed |
| MAIETAILEKIKQYQTIIIHRHQRPDPDCIGSQLALRAILRASFPEKTVVAVGKHYPGFDWMGQADQEVSDDTYHQALVIVVDTANQPRVDDERWQTGAAVIKIDHHPNDDAFGDLQWVLPQASSTSEIIYDWFEANHADLTMPDDAARLLYAGIVGDTGRFMYPATSANTFAVAGKLLAYDFSMTAVNQAEDEISPEMARLSAYAYQNLEILPSGAAYLKLTDEIVESFGLAASDSTSAIVPLPGKITSVVAWAIFVESKDKTFRVRLRSKGPSINELAKRHGGGGHALASGAAAKDQAEIDQVIHELDQLVADTKGENELEHHHHHH | not failed |
| MTQKRKLDAASPGDPHDFAADGIERQTLRMVEQALRADRLMLAWQPVVVASEAARTVFHEGLIRVLDETGRIIPARDFMSAVETQDLGRLIDCASLEKGLATLARHPGLRLSINMSARSIGHGRWMQILQGALRADPNLGPRLILEITESSAMEVPELVLPFMDALQRAGISFALDDFGAGFTAFRYLKDFFFDIIKIDGQFIRNIHRDPDNQVLTQAMLSVGRHFDMLTVAETVETAEEAEWLRAAGVDCLQGYLFGRPCTQPAWQATGTRLIA | failed |
| MGNLSLGELELTVLYDEERYDIVEQTETVQVDLEGPRGVLTVFRFARPSYEVFVDLTEAGEGSHTVDVEHRGFPGDLAVTVEPRLEHHHHHH | failed |
| MSNIECVMFDCDGTLVDSEVLCCRAYVVMFAHYDIHLSLEEVIKRFKGVKLNEIVARVSQENGLDEPIEKLEKLYRAEVARLFDAELQPIAGAKALLEQITLPVCVVSNGPVSKMQHSLGLTGLLPFFEDKLYSGYDIQRWKPDPTLIYHAAEKMHVAAERCILVEDSAAGTHAGIAAGIPVYYYCADPHNQPIHHPLVTMFDDMQQLPDLWRERGWQITSH | failed |
| MQDNSVNETKNIVEVGIDSSIEESYLAYSMSVIIGRALPDARDGLKPVHRRILYAMHELGLTSKVAYKKSARIVGDVIGKYHPHGDNAVYDALVRMAQDFSMRLELVDGQGNFGSIDGDNAAAMRYTEARMTKASEEILRDIDKDTIDFVPNYDDTLKEPDILPSRLPNLLVNGANGIAVGMATSIPPHRMDEIIDALVHVLENPNAGLDEILEFVKGPDFPTGGIIYGKAGIIEAYKTGRGRVKVRAKVHVEKTKNKEIIVLDEMPFQTNKAKLVEQISDLAREKQIEGISEVRDESDREGIRVVIELKRDAMSEIVLNHLYKLTTMETTFSIILLAIYNKEPKIFTLLELLHLFLNHRKTIIIRRTIFELEKAKARAHILEGYLIALDNIDEIVRLIKTSQSPEAAKNALMERFTLSEIQSKAILEMRLQRLTGLERDKIKEEYQNLLELIDDLNGILKSEDRLNGVVKTELLEVKEQFSSPRRTEIQESYENIDIEDLIANEPMVVSMSYKGYVKRVDLKAYEKQNRGGKGKLSGSTYEDDFIENFFVANTHDILLFITNKGQLYHLKVYKIPEASRIAMGKAIVNLISLAPDEKIMATLSTKDFSDERSLAFFTKNGVVKRTNLSEFESNRSCGIRAIVLDEGDELVSAKVVDKNAKHLLIASHLGIFIKFPLEEVREIGRTTRGVIGIKLNENDFVVGAVVISDDGNKLLSVSENGLGKQTLAEAYRGQSRGGKGVIGMKLTQKTGNLVGVISVDDENLDLMILTASAKMIRVSIKDIRETGRNASGVKLINTADKVMYVNSCPKEEEPENLETSSAQNLFE | failed |
| MVYKPLEASDRTELRALQSDRLQRIVTHAHENVPFYREKLDAAGVSPEDIQSIDDITKLPMTTKEDFRDEYPDGLFAVDDEEVARIHASSGTTGKPKIVSYTDDDLDTWSEVVARSLAASGTEAGDTVQNAYGYGLFTGGLGIHYGTEELGASVVPIGSGQTQRQVELMTDLESDVFTCTPSYALYLAETAEEMGHDPRDLPISTIIFGAEPCTDPMREEIEERLGVDGIDIYGLSEIIGPGVSCECHEAKDGLHIWEDHFYPEVIDPHTKEPVEEGEEGELVLTTLTKEALPVFRYRTGDLTTLNYDECACGRTMVRMDNVTGRTDDLLIVRGVNLYPSEIEHAVLDIDGVAPHYRIDLYKEDNLDILELTIERTAEQGPGDKALEDEIIERLENVLAFTPDELELVAPGSIERTQVGKVKRVYDHRD | not failed |
| MKMTAKMRREFPTAFLLLFLVPVMIPVGEAVWLDVPPTGTKCVSEEIQSNVVVLADYLIISEDHEVMPTISVKVTSPYGNNLHNMENVTHGQFAFTTQESGNYLACFWADEKSHGNKNVSINIDWRTGIAAKDWASIAKKEKIEGVELEIRKLEGAVEAIHENILYLRNREADMRTMSEKTNSRVAWYSIMSLGVCIAVSGFQVLYLKQYFEKKKLI | failed |
| MALSGGDDQVPPGGPMTVSTRLIDAGSTIMQRRLPVKQMNTHVSTFAIYGGDMSRLIGTHHYVHRVNDEFLQCAVYASDRSDAPLIGIEYVISDRLYETLSEDEQKLWHSHAYEVKSGSWAYPRLPEVVAAPELKNIAKTYGKFWCTWQIDRGDKLPMGAPELMMSPQGVGQGVLRPELVKRRDEKYNISTDDLKHTRAEIAEPEWINPMADYWKQHGKCFVLDIATVEMNRHAQFP | failed |
| SLSSTELGDLFWSWLRDGLREGDIPVNTADACVHLTCGFVFISVPGVFFLFLKSHSRSCSSGLKESGRKEQVQAAFEKMRKHRVSDSRRFWQCCLYEEPGGRGRYKKLTGYLIKMSEIYANGNFPDDSLFLKVIN | not failed |
| MNGSLQRSHMEIVPDTSVVIDGRVSDQVKADADPDTDVDGMGFAGATVVVPEAVVGELEAQANDGRETGWEGLEELQTLVDLAEEGTIDVEYVGRRPDAIEKREAGEGQIDALIRDIAGDRDATLVTSDDVQAEVARAKGLAVEFVDPVKRTVDRLQI | failed |
| MRSSQAIDFERIPEMEDKWRKEITAMTVTLQDKRKAIQNDEILRGVHPKSHGCLDAEFTVNRDIAPQFQVGLFAQPGKCFRARIRYSNADVLKRADLEKGQDATGARFLNHGSRGMAIKVLDVGAPVLLEDGCARNQDFLMVNTPEFAFRNVRDYLRLTKALCASADGADPLLFFLPGELLKRGMMDMSGSLLPAPAGEPPQNAGLRALFEANRAFFDDFDAEDMQGVISAAGVVGKIQSTPVRNPLFAPYFSAASFRFGKDRVMRFSVVPLQSEEMAADMASDAFEDFSDDYLSQALALSVATNEPIKLSFRIQIAHEEDIVNDIDGMIENAAKTWDEDQFSHTEVAQITINPPCPSAELVDTCKPLLFTPWHAVVDFEPLGGINRLRKPVYSTSAAFRRSVLEHHHHHH | failed |
